The nature of the data set: label from the status in PepcDB records.

As to “MDRDLLRQSLNCHGSSLLSLLRSEQQDNPHFRSLLGSAAEPARGPPPQHPLQGRKEKRVDNIEIQKFISKKADLLFALSWKSDAPATSEINEDSEDHYAIMPPLEQFMEIPSMDRRELFFRDIERGDIVIGRISSIREFGFFMVLICLGSGIMRDIAHLEITALCPLRDVPSHSNHGDPLSYYQTGDIIRAGIKDIDRYHEKLAVSLYSSSLPPHLSGIKLGVISSEELPLYYRRSVELNSNSLESYENVMQSSLGFVNPGVVEFLLEKLGIDESNPPSLMRGLQSKNFSEDDFASALRKKQSASWALKCVKIGVDYFKVGRHVDAMNEYNKALEIDKQNVEALVARGALYATKGSLNKAIEDFELALENCPTHRNARKYLCQTLVERGGQLEEEEKFLNAESYYKKALALDETFKDAEDALQKLHKYMQVIPYFLLEI”, the protein production result is listed as “failed”. Regarding “MDREAFVQTLTACRLCPRLVAWREEVVGRKRAFRGEPYWARPVPGFGDPEARILLFGLAPGAHGSNRTGRPFTGDASGAFLYPLLHEAGLSSKPESLPGDDLRLYGVYLTAAVRCAPPKNKPTPEELRACARWTEVELGLLPEVRVYVALGRIALEALLAHFGLRKSAHPFRHGAHYPLPGGRHLLASYHVSRQNTQTGRLTREMFLEVLMEAKRLAGL”, the protein production result is on record as “not failed”. On to “MDRHTTEGWRRWAARLGAAAMALLLAACAAPRQQAASVDELPSWNDGPSRTAIVEFVRAVTRSGGPDFVAADERIAVFDNDGTLWSEQPMYFQMLFALDRVKSMAPRHPDWARRQPFKAALQDDHAALAKGGDVALMKIVGATHTDMSTDTFTRSVRYWASTARHPRFDRLYTELTFAPMRELLDYLRAHGFKTYIVSGGETEFMRSWTQQAYGIPPEQVIGSSFVTTYGVRDGEPTLWRHGKLEFNDDGPGKPVAIQRYIGRRPILAFGNSDGDLQMLQWTAAGDGKRFAGLVHHTDAQREWAYDRDSRIGRLDRALDEARRQDWTVVDMKTEWKRVYAFEQP”, for which the protein production result is on record as “not failed”. Consider “MDRIDAMKVFVAAIDEGSLAGAARRLKRSPTAVSRALSFLEAHVGVELLHRTTRTLKLSEAGQRYAAACRRVLTDLEEADMLAGGERSAPRGMLTISSPPILGEEILRPILDDFLDLYPTVSVRLLLLDRFVNLVDEGVDIALRIGQLADSSLISTRLGGDVRRVVVASPRYLANHPRIEEPADLDKHQILAFTNFGLESWSFTPAKGSSVPRTIQFTPRCIVNSVRAAAASAAAGRGLTRLYSYHVAEYVRDGRLEIVLADAEHPPLPAHLIAPQGRMSVPKVRAFVDFAAPRLRSEFARMAAEAGTLT”, for which the protein production entry was “failed”.

On to “MDRLKAMQVFVEVADRGSLSAAAMHLGMSRAMVSRYLAELEAWVGVRLLHRTTRRLSLTPAGSETLPRCRRMLEMVGDMREAVAAPDAEPRGLLRVTAAMSFGGAQLAEAVAEFVRRHPAASIDLLLVDRAVNLVEERVDLAVRITNDLDPNLIGRRLADCRSVVCAAPQYLQQHGAPARAEDLSLHNCLTHSYFGRSLWRFERAGEPVEVPVGGNITANETDVLMRAALAGAGIVMLPTYLAAGQIAAGTLRPLLPDCAPPVLGIHGVYVSRKQMPLILRTMLDFLAERFNPAPWDAALEGR”, for which the protein production entry was “failed”. The entry for “MDRLSDFERLTAEIKSLKESLKEKIDKVLSRSVKEASETSEEKKEQSEIAEEGNEDGDNVLVSSLEDEIDSKEEEVLAASCRLLNMFRELDCTFDGPERRMGRLNLNEITEACSRHIVTAMETEQETLNRAISISNAWKHQVSALFNGGIEGEQIKKDLQRLKASSGDEVYWLIRKAFREARVALRTNVYMKPWNLEERREATLMELLGPLPEIARRRLQGRPRRDDCC” is “failed”.

On to “MDRMAVAEEQILLERVRRKIEEVNASGQSQLSPIQEHISFTLLIYAPLIDDELQQAYFKCSNECFEKRRKPEVTTNCVELCRVPVAKSQQQFDSDMAKFQDRMNRSLMVCQDKFEAAKLLNMNRIDAAKDMEGCVNDAAAALLGG”, for which the protein production entry is given as “failed”. Take “MDRRLKKCSTSTDVESVHDVSKVTDPLQKAKRELDNVEIKEKQKKQKNQNETSEKETKKFSTVYEKFNDTIKELDRVSGTCPIRPAIPFTPPKEKVEPIYHNECNFDDKAHLGVSDSALFVQGFDTSHPRHEIKTALWNHFSSCGKVYLIYVPIACSTGASVGYAFIDMKNETKGLTLNGSHLGGRKIDVMFAIDREEFYFSSNLKHCQRCRNYRPWLVLKAMSDACFEYHQRIKPRIVGTPHSKIGRFTAIIGRRSYS”: the protein production result was “failed”. As for “MDRRVTRRGVLAAAGIALAGCTDNGDDQPVRTPLPDEEREPLSNTWRSLGRDDGNTGAVAGIAGPYIEVAAEWQFDVGGAVIGGPVFDENTLYAGTADGEVYALDTHVGAERWSFSADGPVSTTPVVDDGLVAVGSSDGHIYGIDADDGTELWRFDTAVRVDSSPAIDDRYVYAGSVSNAAYAIDRTNGELHWRFDADGSVLASPAVGDETVYVASTDHNVYAIDPDSGEADWQFTTGGEISVAPTLVGDRLYVGSRDSSVYAIDTGSGEGRWSFGLEAAVASSPAVLGDRLFVGAADHNLYALGIGDDSPEGLWRSPTPGAAVGNPAVTDDHVFFGGRDGAVRALRTDGGDRSWEHDVDGGIQGGPALTDRWLYVGTDAGTVYAFRAG”, the protein production result is listed as “failed”. For “MDRSYAVFGLGEFGRSVSYELMEIGADVLAVDKNENKITAIADDVTMAISIDALNEMAYEKLGLNNMDGVVVSMSGNLSASIMAIIAAKDAGVPLVIAKASDDTQRTIFKKVGADRVVIPERDGAVRTAHNLVAKNFLDYIELSDKISIIEINVKDEWLHKPLAELNLRSKYGLNVIAIRRNNDLQTDIGPNLTFDKGDTILVVTDKHDLGL”, the protein production entry is reported as “failed”. As to “MDRTLTHQPQEYAVSVSVGEVKLKGNLVIPNGATGIVLFAHGSGSSRYSPRNRYVAEVLQQAGLATLLIDLLTQEEEEIDLRTRHLRFDIGLLASRLVGATDWLTHNPDTQHLKVGYFGASTGGGAALVAAAERPETVQAVVSRGGRPDLAPSALPHVKAPTLLIVGGYDLPVIAMNEDALEQLQTSKRLVIIPRASHLFEEPGALTAVAQLASEWFMHYLR”, the protein production entry was “not failed”.

“MDSASQDINLNSPNKGVLSDFMTDVPVDPGVVHRTPVVEGLTEGEEEELRAELAKVEEEIVTLRQVLAAKERHCGELKRRLGLSTLGELKQNLSRSWHDVQVSTAYVKTSEKLGEWNEKVTQSDLYKKTQETLSQAGQKTSAALSTMGSAISRKLGDMSSYSIRHSISMPVMRNSATFKSFEDRVGTIKSKVVGGRENGSDNLPPSPGSGDQTLPDHAPF”: the protein production entry is listed as “failed”. For the sequence “MDSDFHVKPEIRILGIDDSALLNEKVMIVGTVFRGGDWIDGVLRSEITRDGLDATEVMVTMIKNSRHHNQLRVIMLDGITYGGFNVVDIEELYRETGLPVIVIMRSCPDFEKIRSALKHFSDGEERWKIIKKAGKIEKLITGRNGTPIYIQKAGIGAKNVEKIIRLTSIRSSIPEPLRVAHLIATGITLGESRGKA”, the protein production entry is given as “failed”.

“MDSGFTLRAPRNDKRRNPMPAILGTGEHRYRVVENFAKLPDGWQLTDVAAVAVDSLDRVYVFNRGAHPMVVLDREGNFLRSWGEGLFSRAHGLHIDADDNLYCTDDGDHTVRKCTSDGKVLLTIGIPAKPAPFMSGEPFHRCTHTALSPKGEIYVSDGYGNARVHKFTPDGKLIKSWGEPGTDPGQFNIVHNIATDSDGWVYVADRENHRVQVFNGEGKYETQWNNLHRPCALCCCGGRSPTFVIGELGPGLDINRNVPNLGPRLSIVDAKGNRIARLGGEEGPGVASGKFLAPHGIALDSKGDIYVGEVGVTNWATSFPDQEMPAVVRATRCLQKLERVRELEHHHHHH”: the protein production entry is “failed”. For “MDSGPLWDANPTPRGTLSAPNATTPWLGRDEELAKVEIGVLATVLVLATGGNLAVLLTLGQLGRKRSRMHLFVLHLALTDLAVALFQVLPQLLWDITYRFQGPDLLCRAVKYLQVLSMFASTYMLLAMTLDRYLAVCHPLRSLQQPGQSTYLLIAAPWLLAAIFSLPQVFIFSLREVIQGSGVLDCWADFGFPWGPRAYLTWTTLAIFVLPVTMLTACYSLICHEICKNLKVKTQAWRVGGGGWRTWDRPSPSTLAATTRGLPSRVSSINTISRAKIRTVKMTFVIVLAYIACWAPFFSVQMWSVWDKNAPDEDSTNVAFTISMLLGNLNSCCNPWIYMGFNSHLLPRPLRHLACCGGPQPRMRRRLSDGSLSSRHTTLLTRSSCPATLSLSLSLTLSGRPRPEESPRDLELADGEGTAETIIF”, the protein production entry is “failed”.

Source of the values: a protein production outcome set (Wang et al. 2014).
